Tested on: leaves of N. benthamiana plants
Assay: Transient expression of coumarin transporter in N. benthamiana leaves, coumarins in leaf wash water / leaves by HPLC
Type: in vivo
Protocol: Droplets of double-distilled water (30 μl) were evenly distributed on the surface of detached leaves placed in a petri dish (approx. 40 droplets on sunflower, 20 droplets on N. benthamiana). Samples were kept at RT for 24 h at high humidity. Subsequently, droplets were carefully collected without touching the leaf surface, filtered and used for HPLC analysis or germination assays.
For transient in planta overexpression assays cDNA sequences of GOIs were cloned in the plant overexpression vector pB7WG2D13 using the Gateway® cloning technology. Similar cloning steps are performed to generate transient in-planta overexpression constructs for any of the other coumarin transporter proteins A0A251U1Q8_HELAN, A0A5N6LHL1_9ASTR, A0A 1I9L1U9_ARTAN, A0A2J6KQ56_LACSA and A0A2G2ZJV1_CAPAN with A0A1S3XDP1_TOBAC as control. […]
Coumarin methanol extracts were centrifuged for 10 min at 21,000 rcf and 70 μl of the supernatant were separated via HPLC on a reverse phase C18 column (KROMAPLUS 100-5-C18 5.0, Prontosil). ddH2O and acetonitrile, both containing 1.5% (v/v) acetic acid, were used as solvents. […] Coumarin fluorescence was detected at λ=335 nm excitation and λ=460 nm emission (FP 920 Intelligent Fluorescence Detector, Jasco) or at λ=342 nm (UV absorbance). […] For quantification, a standard curve of commercial standards with known concentrations was measured.

B1: AtPDR9: already published Arabidopsis thaliana coumarin transporter, used as control (protein, UniProt Q9LFH0 1-1450, looked up)
ABC transporter G family …: MAHMVGADDIESLRVELAEIGRSIRSSFRRHTSSFRSSSSIYEVENDGDVNDHDAEYALQWAEIERLPTVKRMRSTLLDDGDESMTEKGRRVVDVTKLGAVERHLMIEKLIKHIENDNLKLLKKIRRRIDRVGMELPTIEVRYESLKVVAECEVVEGKALPTLWNTAKRVLSELVKLTGAKTHEAKINIINDVNGIIKPGRLTLLLGPPSCGKTTLLKALSGNLENNLKCSGEISYNGHRLDEFVPQKTSAYISQYDLHIAEMTVRETVDFSARCQGVGSRTDIMMEVSKREKEKGIIPDTEVDAYMKAISVEGLQRSLQTDYILKILGLDICAEILIGDVMRRGISGGQKKRLTTAEMIVGPTKALFMDEITNGLDSSTAFQIVKSLQQFAHISSATVLVSLLQPAPESYDLFDDIMLMAKGRIVYHGPRGEVLNFFEDCGFRCPERKGVADFLQEVISKKDQAQYWWHEDLPYSFVSVEMLSKKFKDLSIGKKIEDTLSKPYDRSKSHKDALSFSVYSLPNWELFIACISREYLLMKRNYFVYIFKTAQLVMAAFITMTVFIRTRMGIDIIHGNSYMSALFFALIILLVDGFPELSMTAQRLAVFYKQKQLCFYPAWAYAIPATVLKVPLSFFESLVWTCLSYYVIGYTPEASRFFKQFILLFAVHFTSISMFRCLAAIFQTVVASITAGSFGILFTFVFAGFVIPPPSMPAWLKWGFWANPLSYGEIGLSVNEFLAPRWNQMQPNNFTLGRTILQTRGMDYNGYMYWVSLCALLGFTVLFNIIFTLALTFLKSPTSSRAMISQDKLSELQGTEKSTEDSSVRKKTTDSPVKTEEEDKMVLPFKPLTVTFQDLNYFVDMPVEMRDQGYDQKKLQLLSDITGAFRPGILTALMGVSGAGKTTLLDVLAGRKTSGYIEGDIRISGFPKVQETFARVSGYCEQTDIHSPNITVEESVIYSAWLRLAPEIDATTKTKFVKQVLETIELDEIKDSLVGVTGVSGLSTEQRKRLTIAVELVANPSIIFMDEPTTGLDARAAAIVMRAVKNVADTGRTIVCTIHQPSIDIFEAFDELVLLKRGGRMIYTGPLGQHSRHIIEYFESVPEIPKIKDNHNPATWMLDVSSQSVEIELGVDFAKIYHDSALYKRNSELVKQLSQPDSGSSDIQFKRTFAQSWWGQFKSILWKMNLSYWRSPSYNLMRMMHTLVSSLIFGALFWKQGQNLDTQQSMFTVFGAIYGLVLFLGINNCASALQYFETERNVMYRERFAGMYSATAYALGQVVTEIPYIFIQAAEFVIVTYPMIGFYPSAYKVFWSLYSMFCSLLTFNYLAMFLVSITPNFMVAAILQSLFYVGFNLFSGFLIPQTQVPGWWIWLYYLTPTSWTLNGFISSQYGDIHEEINVFGQSTTVARFLKDYFGFHHDLLAVTAVVQIAFPIALASMFAFFVGKLNFQRR
Scopoletin content in leaf wash water (LWW) (transporter transiently coexpressed with F6'H1, versus biosynthesis gene without transporter): no increased coumarin secretion | Scoparone content in leaf wash water (LWW) (transporter transiently coexpressed with F6'H1 plus OMT3, versus biosynthesis genes without transporter): no increased coumarin secretion

— patent US20240384288A1, “COUMARIN TRANSPORTERS AND USES THEREOF” (BASF PLANT SCIENCE COMPANY GMBH, priority 2021, published 2024)
